Values of other authors, collected in PMC4581962.
pKd: −log10 of the molar value.

Target: IL-6Rα (Homo sapiens) (UniProt P08887)
Chain of UniProt P08887 (P08887 20-355): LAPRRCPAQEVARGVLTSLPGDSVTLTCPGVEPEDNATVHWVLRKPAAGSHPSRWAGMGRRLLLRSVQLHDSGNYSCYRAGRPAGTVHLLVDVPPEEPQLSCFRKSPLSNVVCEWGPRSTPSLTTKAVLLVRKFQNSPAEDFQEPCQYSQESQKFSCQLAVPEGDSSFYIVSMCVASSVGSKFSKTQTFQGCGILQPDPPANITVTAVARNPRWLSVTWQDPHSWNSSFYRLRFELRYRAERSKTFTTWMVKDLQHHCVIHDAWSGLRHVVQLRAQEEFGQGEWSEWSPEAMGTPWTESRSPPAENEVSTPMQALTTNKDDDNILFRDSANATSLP

## IL-6 (from UniProt P05231)
  pKd: 8.05
